{"source": "paper PMC1802081", "about": "(BMC Structural Biology, 2007)", "binders": {"B1": {"name": "activin A (Sf9 cells) (ligand, UniProt P08476 311-426, looked up)", "chain": "GLECDGKVNICCKKQFFVSFKDIGWNDWIIAPSGYHANYCEGECPSHIAGTSGSSLSFHSTVINHYRMRGHSPFANLKSCCVPTKLRPMSMLYYDDGQNIIKKDIQNMIVEECGCS", "modifications": "biotin (biotinylated for the biosensor; site not stated)", "notes": "activin A (dimer of inhibin beta A chains), mature ligand; also called Act-A; source: Sf9 cells [59]"}, "B2": {"name": "ActR-IIBECD wildtype (activin type IIB receptor ectodomain) (receptor, UniProt P27040 19-137, looked up)", "chain": "SGRGEAETRECIYYNANWELERTNQSGLERCEGEQDKRLHCYASWRNSSGTIELVKKGCWLDDFNCYDRQECVATEENPQVYFCCCEGNFCNERFTHLPEPGGPEVTYEPPPTAPTLLT", "notes": "source: E. coli OrigamiB (DE3), purified (Ni2+-IMAC, thrombin cleavage, anion exchange, RP-HPLC)"}}, "settings_in_all_cases": "both partners purified", "key": {"[1]": {"molecular_target": "T1, ActR-II receptor ectodomain (UniProt P27037 20-135)", "T1 construct": "activin receptor type II (ActR-II), extracellular domain; also called ActR-IIECD; source: expressed and purified as described earlier [28]", "test": "SPR; BIACORE 2000; biotinylated ligand on a streptavidin-modified CM5 chip (about 200 RU); receptor ectodomain as analyte at 1, 2, 3, 5, 10, 20 and 50 uM; HBS500 (10 mM HEPES pH 7.4, 500 mM NaCl, 3.4 mM EDTA, 0.005% P20); apparent KD from the dose dependence of equilibrium binding"}, "[2]": {"molecular_target": "B2", "test": "SPR; BIACORE 2000; biotinylated ligand on a streptavidin-modified CM5 chip (about 200 RU); receptor ectodomain as analyte at 1, 2, 3, 5, 10, 20 and 50 uM; HBS500 (10 mM HEPES pH 7.4, 500 mM NaCl, 3.4 mM EDTA, 0.005% P20); apparent KD from the dose dependence of equilibrium binding"}, "[3]": {"molecular_target": "T1, ActR-II receptor ectodomain", "test": "SPR; BIACORE 2000; biotinylated ligand on a streptavidin-modified CM5 chip (about 200 RU); receptor ectodomain as analyte at 1, 2, 3, 5, 10, 20 and 50 uM; HBS500 (10 mM HEPES pH 7.4, 500 mM NaCl, 3.4 mM EDTA, 0.005% P20); apparent KD from the dose dependence of equilibrium binding", "remark": "listed apart in the source"}, "[4]": {"molecular_target": "T2, BMPR-II receptor ectodomain (UniProt Q13873 27-150)", "T2 construct": "BMP type II receptor (BMPR-II), extracellular domain; also called BMPR-IIECD; source: expressed and purified as described earlier [28]", "T2 sequence (looked up)": "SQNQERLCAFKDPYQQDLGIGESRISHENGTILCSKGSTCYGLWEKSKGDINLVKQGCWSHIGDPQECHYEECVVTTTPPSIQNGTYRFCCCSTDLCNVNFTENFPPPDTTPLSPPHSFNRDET", "test": "SPR; BIACORE 2000; biotinylated ligand on a streptavidin-modified CM5 chip (about 200 RU); receptor ectodomain as analyte at 1, 2, 3, 5, 10, 20 and 50 uM; HBS500 (10 mM HEPES pH 7.4, 500 mM NaCl, 3.4 mM EDTA, 0.005% P20); apparent KD from the dose dependence of equilibrium binding"}, "[5]": {"molecular_target": "B2", "test": "SPR; BIACORE 2000; biotinylated ligand on a streptavidin-modified CM5 chip (about 200 RU); receptor ectodomain as analyte at 1, 2, 3, 5, 10, 20 and 50 uM; HBS500 (10 mM HEPES pH 7.4, 500 mM NaCl, 3.4 mM EDTA, 0.005% P20); apparent KD from the dose dependence of equilibrium binding", "remark": "listed apart in the source"}, "[6]": {"molecular_target": "T3, ActR-IIBECD L61A (UniProt P27040 19-137, L61A)", "T3 construct": "also called ActR-IIBL61A; source: E. coli OrigamiB (DE3), purified (Ni2+-IMAC, thrombin cleavage, anion exchange, RP-HPLC)", "T3 sequence (looked up)": "B2 chain with L61A", "test": "SPR; BIACORE 2000; biotinylated ligand on a streptavidin-modified CM5 chip (about 200 RU); receptor ectodomain as analyte at 1, 2, 3, 5, 10, 20 and 50 uM; HBS500 (10 mM HEPES pH 7.4, 500 mM NaCl, 3.4 mM EDTA, 0.005% P20); apparent KD from the dose dependence of equilibrium binding"}, "[7]": {"molecular_target": "T4, ActR-IIBECD L61P (UniProt P27040 19-137, L61P)", "T4 construct": "also called ActR-IIBL61P; source: E. coli OrigamiB (DE3), purified (Ni2+-IMAC, thrombin cleavage, anion exchange, RP-HPLC)", "T4 sequence (looked up)": "B2 chain with L61P", "test": "SPR; BIACORE 2000; biotinylated ligand on a streptavidin-modified CM5 chip (about 200 RU); receptor ectodomain as analyte at 1, 2, 3, 5, 10, 20 and 50 uM; HBS500 (10 mM HEPES pH 7.4, 500 mM NaCl, 3.4 mM EDTA, 0.005% P20); apparent KD from the dose dependence of equilibrium binding"}, "[8]": {"molecular_target": "T5, binary complex BMP-2:BMPR-IAECD (UniProt P12643 283-396; P36894 24-152)", "T5 construct": "bone morphogenetic protein 2 (BMP-2), mature ligand, as m1; BMP type IA receptor (BMPR-IA), extracellular domain, as m25; also called BMP-2 complexed with BMPR-IAECD; BMP-2:(BMPR-IAECD)2; source: formed from the purified proteins and purified as described [58]; copies: 2 + 2", "test": "ITC; isothermal titration calorimetry, 25°C; who was titrated is not told"}, "[9]": {"molecular_target": "T6, BMP-7 (CHO cells, R&D Systems) (UniProt P18075 293-431, biotin (biotinylated for the biosensor; site not stated))", "T6 construct": "bone morphogenetic protein 7 (BMP-7), mature ligand; source: bought: R&D Systems (CHO cells)", "T6 sequence (looked up)": "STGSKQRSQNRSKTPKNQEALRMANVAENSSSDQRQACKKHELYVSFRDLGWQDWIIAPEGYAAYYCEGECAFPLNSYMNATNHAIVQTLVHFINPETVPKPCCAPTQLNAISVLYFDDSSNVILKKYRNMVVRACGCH", "test": "SPR; BIACORE 2000; biotinylated ligand on a streptavidin-modified CM5 chip (about 200 RU); receptor ectodomain as analyte at 1, 2, 3, 5, 10, 20 and 50 uM; HBS500 (10 mM HEPES pH 7.4, 500 mM NaCl, 3.4 mM EDTA, 0.005% P20); apparent KD from the dose dependence of equilibrium binding"}, "[10]": {"molecular_target": "T6, BMP-7 (CHO cells, R&D Systems)", "test": "SPR; BIACORE 2000; biotinylated ligand on a streptavidin-modified CM5 chip (about 200 RU); receptor ectodomain as analyte at 1, 2, 3, 5, 10, 20 and 50 uM; HBS500 (10 mM HEPES pH 7.4, 500 mM NaCl, 3.4 mM EDTA, 0.005% P20); apparent KD from the dose dependence of equilibrium binding", "remark": "listed apart in the source"}}, "note": "Substitutions are numbered along the chain they refer to.", "data": [{"binder": "B1", "values": [{"measurement": "Kd", "setting": "[1]", "value": "~250", "unit": "nM"}, {"measurement": "Kd", "setting": "[2]", "value": 65, "unit": "nM"}, {"measurement": "Kd", "setting": "[3]", "value": 230, "unit": "nM"}, {"measurement": "Kd", "setting": "[4]", "value": 8700, "unit": "nM"}, {"measurement": "Kd", "setting": "[5]", "value": 60, "unit": "nM"}, {"measurement": "Kd", "setting": "[6]", "value": 2000, "unit": "nM"}, {"measurement": "Kd", "setting": "[7]", "value": 180000, "unit": "nM"}]}, {"binder": "B2", "values": [{"measurement": "dH", "setting": "[8]", "value": 14, "unit": "kcal/mol"}, {"measurement": "Kd", "setting": "[9]", "value": 3600, "unit": "nM"}, {"measurement": "Kd", "setting": "[10]", "value": 2800, "unit": "nM"}]}]}
